# Positions count from the first letter of the chain named.
# B1: recombinant EphB3 receptor (commercially available), P54753 34-559 (receptor, UniProt P54753 34-559, looked up)
# chain: GCRALEETLMDTKWVTSELAWTSHPESGWEEVSGYDEAMNPIRTYQVCNVRESSQNNWLRTGFIWRRDVQRVYVELKFTVRDCNSIPNIPGSCKETFNLFYYEADSDVASASSPFWMENPYVKVDTIAPDESFSRLDAGRVNTKVRSFGPLSKAGFYLAFQDQGACMSLISVRAFYKKCASTTAGFALFPETLTGAEPTSLVIAPGTCIPNAVEVSVPLKLYCNGDGEWMVPVGACTCATGHEPAAKESQCRPCPPGSYKAKQGEGPCLPCPPNSRTTSPAASICTCHNNFYRADSDSADSACTTVPSPPRGVISNVNETSLILEWSEPRDLGGRDDLLYNVICKKCHGAGGASACSRCDDNVEFVPRQLGLTERRVHISHLLAHTRYTFEVQAVNGVSGKSPLPPRYAAVNITTNQAAPSEVPTLRLHSSSGSSLTLSWAPPERPNGVILDYEMKYFEKSEGIASTVTSQMNSVQLDGLRPDARYVVQVRARTVAGYGQYSRPAEFETTSERGSGAQQLQEQLPL
# B2: recombinant EphA1 receptor (commercially available), P21709 26-547 (receptor, UniProt P21709 26-547, looked up)
# chain: KEVTLMDTSKAQGELGWLLDPPKDGWSEQQQILNGTPLYMYQDCPMQGRRDTDHWLRSNWIYRGEEASRVHVELQFTVRDCKSFPGGAGPLGCKETFNLLYMESDQDVGIQLRRPLFQKVTTVAADQSFTIRDLVSGSVKLNVERCSLGRLTRRGLYLAFHNPGACVALVSVRVFYQRCPETLNGLAQFPDTLPGPAGLVEVAGTCLPHARASPRPSGAPRMHCSPDGEWLVPVGRCHCEPGYEEGGSGEACVACPSGSYRMDMDTPHCLTCPQQSTAESEGATICTCESGHYRAPGEGPQVACTGPPSAPRNLSFSASGTQLSLRWEPPADTGGRQDVRYSVRCSQCQGTAQDGGPCQPCGVGVHFSPGARGLTTPAVHVNGLEPYANYTFNVEAQNGVSGLGSSGHASTSVSISMGHAESLSGLSLRLVKKEPRQLELTWAGSRPRSPGANLTYELHVLNQDEERYQMVLEPRVLLTELQPDTTYIVRVRMLTPLGPGPFSPDHEFRTSPPVSRGLTGGE
# B3: humanized anti-EFNA4 antibody huE22 (antibody, human IgG1, kappa, V domains shown)
# VH: QVQLVQSGAEVKKPGASVKVSCKASGYTFTGYYIHWVRQAPGQGLEWMGWIYPGNFNTKYNERFKGRVTMTTDTSTSTAYMELRSLRSDDTAVYYCAREDGSPYYAMDYWGQGTSVTVSS
# VL: DIVMTQTPLSLSVTPGQPASISCRSSQSLVHSNGNTFLYWYLQKPGQSPQLLIYRVSNRFSGVPDRFSGSGSGTDFTLKISRVEAEDVGVYYCFQATHVPWTFGGGTKVEIKR
# notes: human IgG1 / kappa; also called huE22 mAb; unconjugated huE22
# B4: huE22-AcBut-CM antibody-drug conjugate (antibody, V domains shown)
# VH: B3 VH
# VL: B3 VL
# modifications: AcBut-N-acetyl-gamma-calicheamicin dimethyl hydrazide (AcBut-CM) conjugated via lysine residues (sites not given); average DAR about 3 to 5
# notes: also called huE22-AcBut-CM ADC; huE22-ActBut-CM
# B5: humanized anti-EFNA4 antibody huE47 (antibody, human IgG1, kappa, V domains shown)
# VH: QVQLVQSGAEVKKPGASVKVSCKASGYTFTYFYMNWVRQAPGQGLEWVGQINPNNGGTAYAQKFQGRVTMTRDTSTSTVYMELSSLRSEDTAVYYCARWVGTHYFDYWGQGTTLTVSS
# VL: EIVLTQSPATLSLSPGERATLSCRASQSVSSSSYTYIHWYQQKPGQAPRLLINFASNLESGIPARFSGSGSGTDFTLTISSLEPEDFAVYYCQHSWEIPPTFGGGTKLEIKR
# notes: human IgG1 / kappa
# B6: humanized anti-EFNA4 antibody huE15 (antibody, human IgG1, V domains shown)
# VH: EVQLVESGGGLVKPGGSLRLSCAASGFTFSTYGMSWVRQAPGKGLEWVATISSGGTYTYYPDSVKGRFKISRDNAKNSLYLQMNSLRAEDTAVYYCTRHDPNDGYYFLFAYWGQGTLVTVSS
# VL: EIVLTQSPGTLSLSPGERATLSCKASQSVGNNVAWYQQKPGQAPRLLIYYASNRYTGIPDRFSGSGSGTDFTLTISRLEPEDFAVYYCQQHYSSPLTFGAGTKLEIK
# Legend:
# [1] = target: T1, human EFNA4 expressed on cells (human, UniProt P52798 26-170); assay: flow cytometry, HCC202 breast cells (endogenous EFNA4), 10 µg/ml antibody
# T1 sequence: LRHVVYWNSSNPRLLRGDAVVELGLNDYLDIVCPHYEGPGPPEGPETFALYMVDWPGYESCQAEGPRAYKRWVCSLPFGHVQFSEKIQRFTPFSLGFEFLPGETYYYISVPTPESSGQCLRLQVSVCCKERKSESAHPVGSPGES
# [2] = target: T1, human EFNA4 expressed on cells; assay: flow cytometry, MX-1 breast cells (endogenous EFNA4), 10 µg/ml antibody
# [3] = target: T1, human EFNA4 expressed on cells; assay: flow cytometry, Z138 mantle cell lymphoma cells (endogenous EFNA4), 10 µg/ml antibody
# [4] = target: T1, human EFNA4 expressed on cells; assay: flow cytometry, MEC1 B-CLL cells (endogenous EFNA4), 10 µg/ml antibody
# [5] = target: T2, monomeric human Ephrin-A4 (human), P52798; assay: SPR (BIAcore 2000), Eph receptor captured via anti-human antibody capture kit, monomeric human Ephrin-A4 12-400 nM as analyte, steady state affinity fit; details: remark: other sources report otherwise
# T2 chain: T1 sequence
# [6] = target: T1, human EFNA4 expressed on cells; assay: cell-based or functional assay
# Ephrin-A1-His (R&D) [7] = target: T3, Ephrin-A1-His (R&D) (UniProt P20827 19-182); assay: direct ELISA, Ephrin-A1-His coated on the plate, biotin-labeled huE22, streptavidin-HRP, OD450
# T3 construct: also called Ephrin-A1 (EFNA1); EFNA1; not shown: His tag
# T3 sequence (looked up): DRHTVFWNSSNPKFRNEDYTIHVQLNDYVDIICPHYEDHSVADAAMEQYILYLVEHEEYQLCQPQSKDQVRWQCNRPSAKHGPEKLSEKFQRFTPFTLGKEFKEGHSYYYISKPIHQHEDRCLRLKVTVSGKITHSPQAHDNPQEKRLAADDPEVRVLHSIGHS
# [8] = target: T1, human EFNA4 expressed on cells; assay: cell-based or functional assay; remark: listed apart in the source
# [9] = target: T4, human EFNA4 antigen (ephrin-A4 ligand) (human, UniProt P52798 26-170); assay: Hu Ag Affinity (Humanized mAb); method not stated
# T4 construct: also called Hu Ag
# T4 sequence: T1 sequence
# Ephrin-A4-huFc (R&D) = target: T5, Ephrin-A4-huFc (R&D) (human, UniProt P52798 26-170); assay: direct ELISA, Ephrin-A4-huFc coated on the plate, biotin-labeled huE22, streptavidin-HRP, OD450
# T5 construct: bought reagent; also called Ephrin-A4 (EFNA4); EFNA4; not shown: human Fc
# T5 sequence: T1 sequence
# Ephrin-A3-huFc (R&D) [10] = target: T6, Ephrin-A3-huFc (R&D) (UniProt P52797 23-214, limits assumed); assay: direct ELISA, Ephrin-A3-huFc coated on the plate, biotin-labeled huE22, streptavidin-HRP, OD450
# T6 construct: also called Ephrin-A3 (EFNA3); EFNA3; not shown: human Fc
# T6 sequence (looked up): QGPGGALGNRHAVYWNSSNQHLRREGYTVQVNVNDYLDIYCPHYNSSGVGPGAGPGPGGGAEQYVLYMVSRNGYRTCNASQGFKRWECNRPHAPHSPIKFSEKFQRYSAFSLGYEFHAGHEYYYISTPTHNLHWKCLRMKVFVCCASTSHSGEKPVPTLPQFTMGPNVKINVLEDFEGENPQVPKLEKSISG
# [11] = target: T7, recombinant cynomolgus monkey EFNA4 extracellular domain fused to a histidine tag (cynomolgus monkey, UniProt A0A2K5U3S7 84-228); assay: SPR (BIAcore 2000), recombinant EFNA4 ECD-His
# T7 construct: extracellular domain; not shown: histidine tag
# T7 sequence: T1 sequence with L1V, Y69F
# [12] = target: T8, recombinant rat EFNA4 extracellular domain fused to a histidine tag (rat, UniProt D3ZEN1 26-173); assay: SPR (BIAcore 2000), recombinant EFNA4 ECD-His
# T8 construct: extracellular domain; also called rat antigen; not shown: histidine tag
# T8 sequence: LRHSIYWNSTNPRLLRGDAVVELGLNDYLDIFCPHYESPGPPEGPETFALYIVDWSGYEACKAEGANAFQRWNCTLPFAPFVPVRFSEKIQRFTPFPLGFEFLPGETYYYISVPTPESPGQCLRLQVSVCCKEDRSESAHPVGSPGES
# [13] = target: T9, recombinant human EFNA4 extracellular domain fused to a histidine tag (human, UniProt P52798 26-170); assay: SPR (BIAcore 2000), recombinant EFNA4 ECD-His
# T9 construct: also called hEFNA4-ECD-His; not shown: histidine tag
# T9 sequence: T1 sequence
# Ephrin-A5-huFc (R&D) = target: T10, Ephrin-A5-huFc (R&D) (UniProt P52803 21-203); assay: direct ELISA, Ephrin-A5-huFc coated on the plate, biotin-labeled huE22, streptavidin-HRP, OD450
# T10 construct: also called EFNA5; not shown: human Fc
# T10 sequence (looked up): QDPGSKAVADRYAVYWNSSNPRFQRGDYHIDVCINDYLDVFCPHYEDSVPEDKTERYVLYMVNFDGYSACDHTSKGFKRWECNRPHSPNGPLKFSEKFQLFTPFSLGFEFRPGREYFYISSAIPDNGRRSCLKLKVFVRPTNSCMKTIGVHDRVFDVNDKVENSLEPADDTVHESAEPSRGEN
# [14] = target: T1, human EFNA4 expressed on cells; assay: cell-based or functional assay; remark: listed apart in the source
# Ephrin-A3-huFc (R&D) [15] = target: T6, Ephrin-A3-huFc (R&D); assay: direct ELISA, Ephrin-A3-huFc coated on the plate, biotin-labeled huE47, streptavidin-HRP, OD450
# Procedure: (§1) Antibody binding was determined by direct ELISA with Ephrin-A1-His, Ephrin-A3-huFc, Ephrin-A4-huFc and Ephrin-A5-huFc (all from R&D) coated on BioOne Microlon (Greiner) plates in PBS overnight at 4° C.
# Ephrin-A1-His (R&D) [16] = target: T3, Ephrin-A1-His (R&D); assay: direct ELISA, Ephrin-A1-His coated on the plate, biotin-labeled huE47, streptavidin-HRP, OD450
# Procedure: as §1
molecule,measurement,setting,value
Non-binding control IgG (antibody),Mean Channel Fluorescent (MCF),[1],15.6
same,Mean Channel Fluorescent (MCF),[2],3.6
same,Mean Channel Fluorescent (MCF),[3],7.4
same,Mean Channel Fluorescent (MCF),[4],7.2
B1,Kd,[5],108 nM
B2,Kd,[5],414 nM
B3,"Saporin-mediated cytotoxicity IC50 (MTS viability), HEK293T parent cells, huE22 plus saporin-conjugated anti-human Fab",[6],174 ng/mL
same,"Saporin-mediated cytotoxicity IC50 (MTS viability), HEK293T-EFNA4 cells, huE22 plus saporin-conjugated anti-human Fab",[6],3 ng/mL
same,binding result,Ephrin-A1-His (R&D) [7],no binding (tested: 1000 ng/ml)
same,"specificity of saporin-mediated cytotoxicity, HEK293T-EFNA4 over HEK293T parental cells",[8],~60 fold
same,Kd,[9],3.8 nM
same,EC50 (read off the curve),Ephrin-A4-huFc (R&D),~4 ng/mL
same,binding result,Ephrin-A3-huFc (R&D) [10],no binding (tested: 1000 ng/ml)
same,Kd,[11],2.1 nM
same,koff,[11],0.0078 s⁻¹
same,kon,[11],3.8e+06 M⁻¹ s⁻¹
same,binding result,[12],no binding (tested: 400 nM antigen)
same,Kd,[13],1.7 nM
same,koff,[13],0.0033 s⁻¹
same,kon,[13],1.9e+06 M⁻¹ s⁻¹
same,binding result,Ephrin-A5-huFc (R&D),no binding (tested: 1000 ng/ml)
B4,"Anti-EFNA4-AcBut-CM cytotoxicity IC50 (MTS viability, 96 h), HEK293T-EFNA4 cells",[14],1 ng/mL
same,Kd,[11],2.7 nM
same,koff,[11],0.011 s⁻¹
same,kon,[11],4.2e+06 M⁻¹ s⁻¹
same,binding result,[12],no binding (tested: 400 nM antigen)
same,Kd,[13],2.3 nM
same,koff,[13],0.0061 s⁻¹
same,kon,[13],2.6e+06 M⁻¹ s⁻¹
B5,Kd,[9],< 0.1 nM
same,binding result,Ephrin-A3-huFc (R&D) [15],no binding (tested: 1000 ng/ml)
same,binding result,Ephrin-A1-His (R&D) [16],no binding (tested: 1000 ng/ml)
B6,Kd,[9],4.8 nM

# Source: patent publication US20180296691A1 (Pfizer, published 2018)
